Test results as given in patent publication US20130289246A1.
Where a chain is given by its changes, count along the chain named.

B1: mAb 3E22 (antibody, V domains shown)
VH: EVQLVESGAEVKKPGASVKVSCKASGYTFSRYYIHWVRQAPGQELEWMGWINPDSGDTNYAQKFRGRVTMARDTSISTVYMELNSLRYDDTAVYFCARIIWSSSGMDVWGQGTTVTVS
VL: QSALTQPASVSGSPGQSITISCTGTSSDVGSYNLVSWYQQHPGKAPKLMIYEVSKRPSGVSNRFSGSKSGNTASLTISGLQAEDEADYYCHLYVGSSNWVFGGGTKLAVLG
B2: mAb 2O10 (antibody, V domains shown)
VH: EVQLVESGGGLVQPGGSLRLSCAASGFTFNSYWMTWVRQAPGKGLEWVANINQDGSEKFFVDSVKGRFTISRDNAKTSLYLQMNSLRVEDTAVYYCAREGAPYDTYYYYYAMDVWGQGTTVTVS
VL: QSVLTQPPSVSGAPGQRVTISCTGTSSNIGAGYGVHWYQQLPGAAPKLLVYGNSNRPSGVPDRFSGSKSGTSASLAITGLQAEDEADYYCQSYDISLSGSNVFGTGTKVTVLG
B3: mAb 18G6 (antibody, V domains shown)
VH: QVQLKESGPGLVKPSETLSLTCTVSGGSISSSNYNWGWIRQPPGKGLEWIGSVYYSGSTYFNPSLKSRVTISVDTSKNQFSLKLTSVTAADTAVYYCARLIAFYYDTNGYTWGQGTLVTVS
VL: NSIMTQSPFTLSASVGDKVTITCRASQSISPWLAWYQQKPGKAPKLLIYKASSLETGVPSRFSGSESGTEFTLTISGLQPDDFATYYCQQYSSFARTFGQGTKVEIKR
B4: mAb 25J3 (antibody, V domains shown)
VH: QVQLQESGPGLVRPSETLSLTCNVSGDSINDYYWSWIRQPPGKGLEWIGYIYYSGSTNYNPSLNSRVTISVEMSKNQFSLILNSVTAADTAVYYCARVDYDSGGSFDPWGQGTLVTVS
VL: QSVLTQPPSVSGAPGQRVTISCTGSSSNIGAGYDVHWYQQLPGTAPKLLIYGNSNRPSGVPDRFSGSKSGTSASLAITGLQAEDEADFYCQSYDSRLSGYVFGTGTKVTVLG
B5: mAb 3J10 (antibody, V domains shown)
VH: EVQLVESGGGVVQPGRSLRLSCAASGFSFSNYAMHWVRQAPGKGLEWVALISFDGSDKYYADSVKGRFTMSRDNSKNTLYLQMNSLRAEDTAVYYCARDEPYCGGDCFAFDVWGQGTMVTVS
VL: B4 VL with G52A, S54N, F88Y, R96S, Y100G, K107T
B6: mAb 2K11 (antibody, V domains shown)
VH: EVQLVESGGGLVQPGGSLRLSCVASTFSLINYWMTWVRQAPGKGLEWVANIKQDGFEKYYVDSVKGRFTISRDNAKNSLYLQMNSLRVEDTAVYYCARQGSYADTYFYHYGMDVWGQGTTVTVS
VL: QSALTQPPSVSGAPGQRVTISCTGSSSNIGAGYDAYWYQQLPGTAPKLLIYGNSNRLSGVPDRFSASKSGTSASLAITGLQAEDEADYYCQSYDSSLSIFGGGTKLTVLR
B7: mAb 11J19 (antibody, V domains shown)
VH: EVQLQESGPGLVKPSETLSLSCTVSGGSITRSSYYWGWIRQPPGKGLEWIGNIYYSGTTYYNPSLKSRVTISVDTSKNQFSLKLSSVTAADTAVYYCARLYGSGLDYWGQGTLVTVS
VL: DIQLTQSPSFLSASVGDRVTITCRASQGSSRYVAWYQQKPGKAPKLLILAASTLHTGVPSRFSGSGSGTEFTLTISSLQPEDFATYSCQQLNGFLLTFGGGTKVEIKR
B8: mAb 10E15 (antibody, V domains shown)
VH: EVQLLESGGGVVQPGRSLRLSCAASGFTFRTYGMHWVRQAPGKGLEWVAVISHDGNLKYYGGSVKGRFTISRDNSKNALYLQMNSLRVDDTALYYCARGIGITDAFDIRGQGTMVVVS
VL: QSVLTQPPSVSAAPGQKVTISCSGSSSNIGKNYVSWYQQLPGTAPKLLIYDNDKRPSGIPDRFSGSKSGTSATLGITGLQTGDEADYHCGAWDSSLNGGVFGGGTKVTVLG
B9: mAb 5J8 (antibody, V domains shown)
VH: EVQLVESGPGLVKPSDILSLTCAVSGYSISSNYYWGWIRQPPGKGLEWIGSIYHSGSTYYKPSLESRLGISVDTSKNQFSLKLSFVSAADTAVYYCARHVRSGYPDTAYYFDKWGQGTLVTVS
VL: SYVLTQPPSVSVAPGETARISCGGNNIGTKVLHWYQQTPGQAPVLVVYDDSDRPSGIPERFSGSNSGNTATLTISRVEVGDEADYYCQVWDISTDQAVFGGGTKLTVLG
B10: mAb 8F24 (antibody, V domains shown)
VH: EVQLLESGGGLVQPGGSLRLSCAASGFAFSSYGMSWVRQAPGKGLEWVSAFSGSGTSTYYADSVKGRFTISRDKSKNTLYLQMNSLRAEDTAIYYCAKPPGPYIVVAGLFENWGRGTLVTVS
VL: EIVMTQSPATLSVSPGERVTLSCRASQSITDGLAWYQQKSGQAPRLLIYGASTRATGIPARFSGSGSGTEFTLTISSLQSEDFAVYYCQQYNNWPPVTFGQGTKVEIKR
B11: mAb 25F7 (antibody, V domains shown)
VH: B10 VH
VL: QSVLTQPPSVSGAPGQRVTISCTGTSSNIGAGYEVHWYQQLPGTAPKLIINANTNRPSGVPDRFSGSQSGTSASLAITGLRAEDEADYYCQSFDSSLSGWLFGGGTKLTVLG
B12: mAb 6K14 (antibody, V domains shown)
VH: EVQLVESGAEVKKPGASVKVSCKASGYTFTSFDINWVRQAPGQGLEWMGWMTPTSGKTGYAQKFQGRITMTRNTSINTAYMELSSLRSEDTAVYFCARGPERRTTIFDVILDWFDPWGQGTLVTVS
VL: DIVMTQSPFSLSLSPGERATLSCRASQSISNYLAWYQQKPGQAPRLLIYDSSNRATGVPARFSGSGSGTDFTLTISSLEPEDFAVYYCQQRSNWMYTFGQGTKVEIKR
B13: 5J8 Fab (Fab, V domains shown)
VH: B9 VH
VL: B9 VL

The binders below were run against recombinant soluble 1957 H2 HA (A/Japan/305+/1957) (Influenza A virus A/Japan/305+/1957 (H2N2)) (assay: ELISA, supernate).

Binder	OD [OD]
B1	1.18
B2	0.073
B3	0.757
B4	0.07
B5	0.074
B6	0.08
B7	0.079
B8	0.485
B9	0.077
B10	0.073
B11	0.871
B12	1.93

These binders were tested against recombinant soluble 1968 H3 HA (A/Aichi/2/1968) (Influenza A virus A/Aichi/2/1968 (H3N2)) (UniProt P03437) (assay: ELISA, supernate).

Binder	OD [OD]
B5	0.076
B10	0.669
B11	0.085

Each binder was assayed against recombinant soluble trimeric 1918 H1 HA (A/South Carolina/1/1918, wild type) (Influenza A virus A/South Carolina/1/1918 (H1N1)) (UniProt Q9WFX3) (assay: ELISA, supernate).

Binder	OD [OD]
B5	0.069
B10	0.209
B11	0.075

These binders were tested against recombinant soluble trimeric 2009 H1 HA (A/California/04/2009, wild type) (Influenza A virus A/California/04/2009 (H1N1)) (assay: ELISA, supernate).

Binder	OD [OD]
B1	2.38
B2	1.62
B3	0.071
B4	0.071
B5	0.073
B6	1.28
B7	0.081
B8	0.996
B9	1.93
B10	0.714
B11	0.078
B12	2.12

Each binder was assayed against soluble 1999 H1 HA (seasonal 1999 H1N1) (Influenza A virus (H1N1, 1999)) (assay: ELISA, supernate; also: test concentration or dose not given here).

Binder	OD [OD]
B1	2.06
B2	0.872
B3	0.071
B4	0.071
B5	0.711
B6	0.518
B7	0.071
B8	0.514
B9	1.46
B10	1.01
B11	0.077
B12	0.203

These binders were tested against soluble 2004 H5 HA (Influenza A virus (H5N1, 2004)) (assay: ELISA, supernate).

Binder	OD [OD]
B1	1.57
B2	0.072
B3	0.071
B4	0.07
B5	0.075
B6	0.075
B7	0.067
B8	1.69
B9	0.077
B10	0.074
B11	0.076
B12	1.12

Each binder was assayed against recombinant soluble trimeric 2009 H1 HA (A/California/04/2009, wild type) (Influenza A virus A/California/04/2009 (H1N1)) (assay: biolayer interferometry (Octet Red), His-tagged HA on anti-Penta-HIS tips).

Binder	Kd [nM]	koff [s⁻¹]	kon [M⁻¹ s⁻¹]
B13	26	0.0065	250000
